{
  "source": "patent US20190389955A1",
  "biological_target": "human FLT3/FLK2 receptor protein (human) (UniProt P36888)",
  "sequence (P36888 27-993)": "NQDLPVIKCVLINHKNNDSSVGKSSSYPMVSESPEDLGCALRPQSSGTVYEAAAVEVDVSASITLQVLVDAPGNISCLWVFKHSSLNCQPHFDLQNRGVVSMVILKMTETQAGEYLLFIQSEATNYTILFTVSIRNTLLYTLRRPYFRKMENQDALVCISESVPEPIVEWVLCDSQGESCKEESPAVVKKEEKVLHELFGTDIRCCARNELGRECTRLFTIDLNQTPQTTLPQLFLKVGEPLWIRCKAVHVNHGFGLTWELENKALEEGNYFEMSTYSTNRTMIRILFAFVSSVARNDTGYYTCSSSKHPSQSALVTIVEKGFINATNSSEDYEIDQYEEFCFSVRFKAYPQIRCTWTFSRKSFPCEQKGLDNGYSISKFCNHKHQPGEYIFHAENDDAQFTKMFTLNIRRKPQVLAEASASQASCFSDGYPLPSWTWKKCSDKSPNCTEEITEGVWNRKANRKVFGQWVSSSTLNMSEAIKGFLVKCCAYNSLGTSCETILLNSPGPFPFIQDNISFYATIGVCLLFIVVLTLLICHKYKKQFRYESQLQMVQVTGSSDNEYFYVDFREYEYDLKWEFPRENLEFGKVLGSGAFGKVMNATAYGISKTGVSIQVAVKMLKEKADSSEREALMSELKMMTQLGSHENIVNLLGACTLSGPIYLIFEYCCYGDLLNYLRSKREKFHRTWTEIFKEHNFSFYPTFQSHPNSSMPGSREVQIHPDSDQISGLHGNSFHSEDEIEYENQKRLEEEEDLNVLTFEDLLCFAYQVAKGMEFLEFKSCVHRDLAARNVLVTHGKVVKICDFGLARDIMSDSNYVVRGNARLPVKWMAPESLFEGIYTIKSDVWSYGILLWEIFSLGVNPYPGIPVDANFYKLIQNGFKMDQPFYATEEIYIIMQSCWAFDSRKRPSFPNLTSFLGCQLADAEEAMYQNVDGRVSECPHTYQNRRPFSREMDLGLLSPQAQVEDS",
  "assay": "flow cytometry on SP2/0 cells expressing human FLT3/FLK2; same table: unstained SP2/0 clone 3 6063, secondary Ab 9522",
  "data": [
    {"substance": "ISOTYPE CTR (antibody)", "values": [
      {"measurement": "MFI", "result": 11500}
    ]}
  ]
}
